Results published in article PMC5663958, “DNA Ligase C and Prim-PolC participate in base excision repair in mycobacteria” (Nature Communications, 2017).

Columns and labels:
[1] = target: T1, tag-free LigC1 (6xHis-LigC subjected to thrombin digestion) (M. smegmatis, UniProt A0R5T2 1-348); experiment: pull-down; FPG-6xHis or 6xHis-MPG bound to Ni-NTA resin in 50 mM Tris pH 8.0, 150 mM NaCl, 1 h at 4 °C; tag-free LigC or BSA added for 2 h; equimolar proteins; eluted with imidazole; SDS-PAGE and Coomassie staining; conditions: both partners purified
T1 construct: ATP-dependent DNA ligase C1 of Mycobacterium smegmatis, locus msmeg_6302; same construct as m2 with the tag cut off by thrombin; The methods say 'LigC', the results 'LigC1'; source: E. coli Origami B pLysS, purified; His-tag removed by a standard thrombin digestion; not shown: 6xHis, N-terminal, cleaved
T1 sequence (looked up): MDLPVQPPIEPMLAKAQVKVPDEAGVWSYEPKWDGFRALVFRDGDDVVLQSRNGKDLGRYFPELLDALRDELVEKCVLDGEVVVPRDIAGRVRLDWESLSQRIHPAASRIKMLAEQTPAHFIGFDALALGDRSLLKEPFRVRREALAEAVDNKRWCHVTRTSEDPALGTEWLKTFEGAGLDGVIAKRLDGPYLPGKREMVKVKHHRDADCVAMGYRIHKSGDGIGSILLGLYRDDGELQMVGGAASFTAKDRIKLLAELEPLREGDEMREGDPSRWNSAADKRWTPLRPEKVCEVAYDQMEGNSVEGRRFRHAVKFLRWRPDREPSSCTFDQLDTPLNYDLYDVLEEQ

[2] = target: T2, DNA ligase C1 (LigC1, msmeg_6302), recombinant, His-tagged construct (M. smegmatis, UniProt A0R5T2 1-348); experiment: far-Western, overlay or dot blot; recombinant proteins slot-blotted on a membrane (3 μg of the possible interactors, 50 ng of the probed protein), blocked in TBS, 0.05% Tween 20, 5% milk; incubated with 5 μg ml^−1 Prim-PolC or LigC1; detected with Prim-PolC- or LigC1-specific antibodies; conditions: both partners purified
T2 construct: ATP-dependent DNA ligase C1 of Mycobacterium smegmatis, locus msmeg_6302; Cloned in pET28; also called 6xHis-LigC; source: E. coli Origami B pLysS, purified (Ni Sepharose, ion exchange, gel filtration)
T2 sequence (looked up): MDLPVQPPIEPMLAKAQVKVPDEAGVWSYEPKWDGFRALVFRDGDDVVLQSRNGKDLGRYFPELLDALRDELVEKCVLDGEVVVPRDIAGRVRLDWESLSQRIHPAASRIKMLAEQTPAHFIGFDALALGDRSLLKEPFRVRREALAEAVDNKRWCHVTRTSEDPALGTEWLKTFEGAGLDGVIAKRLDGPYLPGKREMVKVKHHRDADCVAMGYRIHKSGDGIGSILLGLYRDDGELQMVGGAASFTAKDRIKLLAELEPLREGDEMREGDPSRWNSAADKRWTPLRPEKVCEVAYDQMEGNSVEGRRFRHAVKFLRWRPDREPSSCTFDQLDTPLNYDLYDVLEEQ

B1: FPG (MutM) bifunctional glycosylase, recombinant (enzyme, M. smegmatis, UniProt A0QV21 1-285, looked up)
chain: MPELPEVEVVRRGLAEHVTGKTITGVRVHHPRAVRRHEAGPADLTARLLDVRITGTGRRGKYLWLTLDDSAALVVHLGMSGQMLLGPIRDTRHLRIAAVLDDGTALSFVDQRTFGGWQLTEMVTVDGTDVPEPVAHIARDPLDPLFDRDRVVTVLRGKHSEIKRQLLDQTVVSGIGNIYADEALWRTKINGARIAAALPRRRLAELLDAAAEVMTDALGQGGTSFDSLYVNVNGESGYFDRSLDAYGREGEPCRRCGAIMRREKFMNRSSFYCPRCQPRPRVPRV
notes: Bifunctional DNA glycosylase FPG (MutM) of Mycobacterium smegmatis; Cloned in pET28; also called FPG-6xHis; source: E. coli Origami B pLysS, purified (Ni Sepharose, ion exchange, gel filtration); not shown: 6xHis, C-terminal, kept
- binding result [1]: binds
- binding result [2]: binds
